Measurements from patent US20190038704A1.

Assays:
[1] = target: mouse EphA4 ectodomain fused to Fc (mouse) (UniProt Q03137); assay: competition ELISA: ephrin-A5 AP binding to immobilized EphA4 Fc
[2] = target: EphA4 on neurons of embryonic day 6 chicken nasal retinal explants (chicken) (UniProt Q07496); assay: cell-based or functional assay
EphA4 on neurons of embryonic day 6 chicken nasal retinal explants (chicken), sequence (Q07496 20-986): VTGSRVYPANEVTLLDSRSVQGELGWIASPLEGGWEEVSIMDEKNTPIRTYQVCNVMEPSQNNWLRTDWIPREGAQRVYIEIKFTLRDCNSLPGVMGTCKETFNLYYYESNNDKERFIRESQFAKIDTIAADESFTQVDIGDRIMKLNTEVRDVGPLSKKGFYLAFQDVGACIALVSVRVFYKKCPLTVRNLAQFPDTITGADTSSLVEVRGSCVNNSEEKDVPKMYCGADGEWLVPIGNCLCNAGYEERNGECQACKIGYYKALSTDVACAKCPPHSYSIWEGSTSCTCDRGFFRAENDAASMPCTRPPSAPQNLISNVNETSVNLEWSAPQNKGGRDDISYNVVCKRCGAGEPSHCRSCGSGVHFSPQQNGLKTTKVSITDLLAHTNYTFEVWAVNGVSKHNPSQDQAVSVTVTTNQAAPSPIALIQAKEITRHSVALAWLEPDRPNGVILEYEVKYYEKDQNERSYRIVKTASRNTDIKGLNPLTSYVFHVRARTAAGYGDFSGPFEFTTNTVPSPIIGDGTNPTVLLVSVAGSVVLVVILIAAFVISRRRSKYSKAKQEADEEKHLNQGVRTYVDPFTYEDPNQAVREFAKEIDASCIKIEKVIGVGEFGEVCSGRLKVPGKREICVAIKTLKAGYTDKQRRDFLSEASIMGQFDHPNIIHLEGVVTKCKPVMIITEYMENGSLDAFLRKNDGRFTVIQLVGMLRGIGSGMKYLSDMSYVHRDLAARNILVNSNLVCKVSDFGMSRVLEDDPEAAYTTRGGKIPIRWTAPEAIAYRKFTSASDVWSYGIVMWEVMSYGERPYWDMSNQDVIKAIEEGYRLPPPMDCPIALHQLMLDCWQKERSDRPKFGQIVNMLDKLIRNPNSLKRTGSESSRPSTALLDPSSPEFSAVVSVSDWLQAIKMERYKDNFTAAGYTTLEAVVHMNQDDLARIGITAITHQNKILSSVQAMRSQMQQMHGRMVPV

ephrin-A5 Fc (Fc fusion), sequence (P52803 21-203): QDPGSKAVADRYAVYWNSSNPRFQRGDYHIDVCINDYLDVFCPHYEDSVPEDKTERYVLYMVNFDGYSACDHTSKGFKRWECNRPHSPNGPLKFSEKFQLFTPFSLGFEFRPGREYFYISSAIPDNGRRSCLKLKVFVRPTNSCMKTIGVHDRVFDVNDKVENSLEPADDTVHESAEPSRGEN
mouse EphA4 ectodomain fused to Fc (mouse), sequence (Q03137 20-547): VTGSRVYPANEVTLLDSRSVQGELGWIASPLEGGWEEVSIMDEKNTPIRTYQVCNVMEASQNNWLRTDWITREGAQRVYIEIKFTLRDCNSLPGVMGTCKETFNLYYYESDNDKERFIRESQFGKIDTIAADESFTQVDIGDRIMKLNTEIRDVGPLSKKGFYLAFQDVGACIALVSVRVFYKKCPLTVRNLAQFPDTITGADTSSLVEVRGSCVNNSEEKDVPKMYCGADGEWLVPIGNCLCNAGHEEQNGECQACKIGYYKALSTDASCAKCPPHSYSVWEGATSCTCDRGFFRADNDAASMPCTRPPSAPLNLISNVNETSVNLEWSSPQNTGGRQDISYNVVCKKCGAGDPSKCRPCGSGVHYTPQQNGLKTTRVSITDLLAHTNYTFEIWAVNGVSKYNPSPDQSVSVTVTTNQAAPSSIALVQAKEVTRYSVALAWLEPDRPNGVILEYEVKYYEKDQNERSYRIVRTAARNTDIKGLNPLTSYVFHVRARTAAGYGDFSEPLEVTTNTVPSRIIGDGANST

| Substance | IC50 [1] [nM] | percent collapsed growth cones, chicken nasal retinal explants (experiment with APY-d3.am) [2] [%] | percent collapsed growth cones, chicken nasal retinal explants (experiment with APY-βAla8.am) [2] [%] |
| --- | --- | --- | --- |
| βAla1-PY-Lys7-βAla8.am (peptide) | 70 | – | – |
| ephrin-A5 Fc (Fc fusion) | – | 70 | 65 |
